Experimental data taken from patent publication US20250313631A1.

Columns and labels:
[1] = molecular target: recombinant cynomolgus macaque VISTA (His-tagged) (cynomolgus macaque); assay: ELISA, plate coated with cyno VISTA
[2] = molecular target: recombinant rat VISTA (His-tagged) (rat); assay: ELISA, plate coated with rat VISTA
[3] = molecular target: recombinant human VISTA (His-tagged) (human) (UniProt Q9H7M9); assay: ELISA, plate coated with human VISTA; unit nM from the legend paragraph 698
[4] = molecular target: recombinant mouse VISTA (His-tagged) (mouse) (UniProt Q9D659); assay: ELISA, plate coated with mouse VISTA; unit nM from the legend paragraph 698
Chain of recombinant mouse VISTA (His-tagged) (mouse) (Q9D659 33-191 limits assumed): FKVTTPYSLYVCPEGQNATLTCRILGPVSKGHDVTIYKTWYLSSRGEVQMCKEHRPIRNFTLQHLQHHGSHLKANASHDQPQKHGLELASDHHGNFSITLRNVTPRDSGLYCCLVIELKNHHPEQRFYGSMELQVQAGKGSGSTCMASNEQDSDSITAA

[5] = molecular target: recombinant human VISTA (His-tagged) (human) (UniProt Q9H7M9); assay: ELISA, plate coated with human VISTA
[6] = molecular target: recombinant human VISTA (His-tagged) (human) (UniProt Q9H7M9); assay: ELISA, plate coated with human VISTA; unit nM from the legend paragraph 697
[7] = molecular target: recombinant mouse VISTA (His-tagged) (mouse) (UniProt Q9D659); assay: ELISA, plate coated with mouse VISTA; unit nM from the legend paragraph 697
[8] = molecular target: recombinant mouse VISTA (His-tagged) (mouse) (UniProt Q9D659); assay: ELISA, plate coated with mouse VISTA
[9] = molecular target: recombinant human VISTA (His-tagged) (human) (UniProt Q9H7M9); assay: ELISA, plate coated with human VISTA; unit nM from the legend paragraph 699
[10] = molecular target: recombinant mouse VISTA (His-tagged) (mouse) (UniProt Q9D659); assay: ELISA, plate coated with mouse VISTA; unit nM from the legend paragraph 699
[11] = molecular target: human VISTA expressed on cells (human) (UniProt Q9H7M9); assay: flow cytometry, FITC-A; HEK293 VISTA O/E cells (unstained cells: MFI 0.12)
[12] = molecular target: human FcγRIII (CD16a) (human) (UniProt P08637); assay: ELISA, plate coated with human CD16a (FcγRIII), detection with HRP anti-human Fc antibody
Chain of human FcγRIII (CD16a) (human) (P08637 17-208 limits assumed): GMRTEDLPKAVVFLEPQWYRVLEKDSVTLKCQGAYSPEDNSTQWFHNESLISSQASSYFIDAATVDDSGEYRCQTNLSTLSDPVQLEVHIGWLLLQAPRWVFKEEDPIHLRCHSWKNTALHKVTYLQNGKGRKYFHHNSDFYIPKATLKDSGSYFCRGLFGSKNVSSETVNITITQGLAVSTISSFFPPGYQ

Fc-tagged VSIG-3 = Fc-tagged VSIG-3 (UniProt Q5DX21); assay: BLI, 100 nM Fc-tagged VSIG-3 on anti-human Fc biosensor, VISTA as analyte from 3000 nM

Human isotype (antibody)
EC50 [1]: > 33 nM
EC50 [2]: > 33 nM
EC50 [3]: > 200 nM
EC50 [4]: > 200 nM
EC50 [5]: > 33 nM
EC50 [6]: 152 nM
EC50 [7]: 77 nM
EC50 [8]: > 33 nM
EC50 [9]: 98.5 nM
EC50 [10]: > 200 nM

Isotype (antibody)
MFI [11]: 0.06

hIgG1 Isotype Control (antibody)
EC50 (read off the curve) [12]: 1 nM

recombinant human VISTA (His-tagged) (from UniProt Q9H7M9 33-194) (receptor)
Kd (Fc-tagged VSIG-3): 5280 nM
